Source: patent US20120164161A1 (AFFITECH RESEARCH, published 2012)
Numbering of substitutions follows the chain as printed.

Assays:
[1] = target: T1, human CC chemokine receptor 4 (CCR4) (human, UniProt P51679 1-360); assay: flow cytometry on DT40 cells expressing human CCR4; scFv cross-linked with mouse anti-Myc antibody, detected with RPE anti-mouse IgG; MFI (PE-signal)
T1 construct: whole, on cells; also called human CCR4; CD194
T1 sequence (looked up): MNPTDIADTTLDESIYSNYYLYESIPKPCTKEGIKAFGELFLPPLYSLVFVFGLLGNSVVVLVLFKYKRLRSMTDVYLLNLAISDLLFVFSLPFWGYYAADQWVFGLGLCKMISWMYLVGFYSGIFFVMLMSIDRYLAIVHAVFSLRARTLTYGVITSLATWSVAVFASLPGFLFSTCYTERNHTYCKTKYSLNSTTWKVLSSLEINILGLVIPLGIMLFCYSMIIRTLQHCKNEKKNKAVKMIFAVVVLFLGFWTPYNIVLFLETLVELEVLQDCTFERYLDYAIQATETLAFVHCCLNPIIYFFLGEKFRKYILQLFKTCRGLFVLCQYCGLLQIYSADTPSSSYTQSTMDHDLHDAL
Description: For the flow cytometry experiments, the cells were harvested from the culture flasks, washed 2 times with PBS, re-suspended in PBS with 0.2% BSA and 0.09% NaN3 and finally aliquoted 1×10^5 cells per well into V-shaped 96-well plates (Greiner Bio-One, Frickenhausen, Germany). Cells were centrifuged at 400×g for 5 min and then incubated at 4° C. for 60 min with different scFv dilutions.
All scFv preparations were pre-incubated with a mouse anti-myc-antibody (9E10.2, Diatec, Oslo, Norway) to cross-link scFvs prior adding to the cells and diluted 3-fold, starting at a concentration of 10 μg/ml.
After washing with PBS with 0.2% BSA and 0.09% NaN3, the cells were stained with 1 μg/ml of RPE-conjugated goat anti-mouse IgG (AbD Serotec, Duesseldorf, Germany) for 30 minutes at 4° C. The stained cells were washed, re-suspended in 200 μl PBS with 0.2% BSA and 0.09% NaN3 and transferred to a U-shaped 96-well plate (Corning, Schiphol-Rijk, The Netherlands) for acquisition on EasyCyte flow cytometer (Guava Technologies, Hayward, Calif., USA).

[2] = target: T1, human CC chemokine receptor 4 (CCR4); assay: cell-based or functional assay
[3] = target: T2, monkey (Macaca mulatta) CCR4 (monkey (Macaca mulatta), UniProt F7GUA3 1-360); assay: flow cytometry on transiently transfected HEK-293T/17 cells, IgG 1 ug/ml (data not shown)
T2 construct: also called monkey CCR4
T2 sequence: T1 sequence (looked up) with M116I, L201I, L215F, E269D, L334F
Description: (§1) For transient transfection, Hek293T/17 cells were seeded as 2×10^6 cells in a T75 (NUNC) flask. 48 h after seeding, the cells were transfected with Fugene (ROCHE). 40 μl Fugene and 16 μg DNA are used per T75. The cells were used for assays 48 h after transfection.
(§2) Non-transfected (CCR4 negative) cells served as a negative control. The cells were cultivated further for 48 hours under regular conditions and harvested form flasks as described above. One times 10^5 cells per well were aliquoted into V-shaped 96-well plates (Greiner Bio-One, Frikenhausen, Germany). […] The samples were then washed twice by centrifugation and re-suspension in 150 μl FACS buffer. […] The samples were washed twice as described above and re-suspended in 250 μl FACS buffer followed by transfer into a U-shaped 96-well plate (Corning, Schiphol-Rijk, Netherlands) for flow cytometry on FACSCantoII (BD Biosciences, San Jose, Calif.).

[4] = target: T1, human CC chemokine receptor 4 (CCR4); assay: flow cytometry on CCRF-CEM cells; defucosylated IgG1, detected with RPE anti-human IgG; Median-PE [panel CCRF-CEM]
Description: (§3) All cells were re-suspended in PBS with 0.2% BSA and 0.09% NaN3 and finally aliquoted 1×10^5 cells per well into V-shaped 96-well plates (Greiner Bio-One, Frickenhausen, Germany). Cells were centrifuged at 400×g for 5 min and then incubated at 4° C. for 60 min with different IgG dilutions. For binding in presence of human serum, CCRF-CEM cells were incubated with different IgG-solutions at either 10% or 50% of human serum (Sigma Aldrich, St Louis, Mo., USA) at 37° C. for 60 min.

mouse CCR4 = target: T3, mouse CCR4 (mouse, UniProt P51680 1-360); assay: flow cytometry on transiently transfected HEK-293T/17 cells, IgG 1 ug/ml
T3 construct: whole, on cells; also called murine CCR4
T3 sequence (looked up): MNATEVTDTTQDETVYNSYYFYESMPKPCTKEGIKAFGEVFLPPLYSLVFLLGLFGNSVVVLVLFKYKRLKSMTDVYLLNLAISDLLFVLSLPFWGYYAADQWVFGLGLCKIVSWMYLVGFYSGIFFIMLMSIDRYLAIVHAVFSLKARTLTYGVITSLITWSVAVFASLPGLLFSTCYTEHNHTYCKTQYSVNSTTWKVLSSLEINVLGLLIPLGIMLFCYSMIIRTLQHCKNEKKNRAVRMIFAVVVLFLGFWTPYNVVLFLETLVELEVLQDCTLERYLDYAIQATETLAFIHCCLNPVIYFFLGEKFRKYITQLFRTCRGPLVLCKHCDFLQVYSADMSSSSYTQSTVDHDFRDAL
Description: as §1, §2

[5] = target: T1, human CC chemokine receptor 4 (CCR4); assay: flow cytometry on Hut78 cells (CCR4-positive); defucosylated IgG1, detected with RPE anti-human IgG; Median-PE [panel Hut78]
Description: as §3

[6] = target: T1, human CC chemokine receptor 4 (CCR4); assay: flow cytometry competition; IgG titrated from 5 ug/ml against fixed Alexa647 MDC-SNAP (50 nM); competitor MDC-SNAP
[7] = target: T1, human CC chemokine receptor 4 (CCR4); assay: cell-based or functional assay; remark: listed apart in the source
[8] = target: T1, human CC chemokine receptor 4 (CCR4); assay: flow cytometry competition; IgG titrated from 2.5 ug/ml against fixed biotinylated TARC; competitor biotinylated TARC
[9] = target: T1, human CC chemokine receptor 4 (CCR4); assay: cell-based or functional assay; remark: listed apart in the source
[10] = target: T1, human CC chemokine receptor 4 (CCR4); assay: cell-based or functional assay; remark: listed apart in the source
[11] = target: T1, human CC chemokine receptor 4 (CCR4); assay: cell-based or functional assay; remark: listed apart in the source

B1: 603 scFv (scFv, not shown: small tags and cut ends)
scFv: QVQLVQSGAEVKKPGSSVKVSCKASGGTFSSYAMSWVRQAPGQGLEWMGGIIPIFGTVNYAQKFQGRVTMTRDTSTSTVYMELSSLRSDDTAVYYCARRRGAKFDYWGQGTLVTVSSKLSGSASAPKLEEGEFSEARVSYVLTQPPSASGTPGQSVTISCSGSTSNIGSHYVVWYQQLPGTAPRLLIYRNHQRPSGVPDRLSGSKSGTSASLAIGGLRSEDEADYYCAVWDDTLSGWVFGGGTKLTVL
notes: Expressed in TG1 bacteria; also called scFv 603; antibody 603 (single chain form)
EC50 (read off the curve) [1]: ~0.3 µg/mL
IC50 of inhibition of TARC-mediated Ca-Flux in CCRF-CEM cells [2]: 2 pM

B2: IgG form of antibody 503 (defucosylated IgG1) (antibody, V domains shown)
VH: QVQLVQSGAEVKKPGSSVKVSCKASEGTFSSYAMSWVRQAPGQGLEWMGGIIPIFGTVNYAQKFQGRVTMTRDTSTSTVYMELSSLRSDDTAVYYCARRRGAKFDYWGQGTLVTVSS
VL: SYVLTQPPSASGTPGQSVTISCSGSTSNIGSHYVVWYQQLPGTAPRLLIYRNHQRPSGVPDRLSGSKSGTSASLAIGGLRSEDEADYYCAVWDDTLSGWVFGGGTKLTVLG
notes: Human IgG1, lambda light chain; produced in presence of Kifunensine (defucosylated); Biotinylated via cysteines for the human serum experiment
binding result [3]: binds
EC50 (read off the curve) [4]: ~0.02 nM
binding result (mouse CCR4): binds
EC50 (read off the curve) [5]: ~0.05 nM
IC50 [6]: 0.11 nM
Inhibition of MDC (Ca-Flux), Blockage of signaling in % at 10 µg/ml IgG [7]: 64%
Inhibition of TARC (Ca-Flux), IC50 [7]: 13 pM
IC50 [8]: 0.87 nM
IC50 of inhibition of CCL17/TARC-induced invasion of 786-O cells, CCL17/TARC 25 nM [9]: 0.12 µg/mL
IC50 of inhibition of CCL17/TARC-induced invasion of 786-O cells, CCL17/TARC 125 nM [9]: 1.33 µg/mL
ADCC on CCRF-CEM cells with human PBMCs, EC50 [10]: 5.3 pM
ADCC on CCRF-CEM cells, Max. Killing (%; nM IgG) [10]: 108 % (at 1.4 nM IgG)
ADCC on L-428 cells with human PBMCs, EC50 [10]: 233 pM
ADCC on L-428 cells, Max. Killing (%; nM IgG) [10]: 93 % (at 7 nM IgG)
Inhibition of CCL17/TARC-induced migration of CCRF-CEM cells, IC50 [11]: 39 pM
Inhibition of CCL22/MDC-induced migration, Blockage of migration in % (IgG 10 µg/ml) [11]: 39%
